The numbers were not newly measured in US20200069786A1, “COMPOSITION AND PROCESS FOR PREPARING VACCINE” (TREOS BIO ZRT., priority 2018, published 2020), which cites them from elsewhere.

The data set has as its system TSA.
The mark [1] stands for this setting: TSA expression rate in LUNG cancer.
[2] abbreviates: TSA expression rate in Esophageal.

Where two headings read alike, the source gives them in different places.

B1: LEMD1 (protein, UniProt Q68G75 1-181, looked up)
LEM domain-containing protein …: MVDVKCLSDCKLQNQLEKLGFSPGPILPSTRKLYEKKLVQLLVSPPCAPPVMNGPRELDGAQDSDDSEELNIILQGNIILSTEKSKKLKKWPEASTTKRKAVDTYCLDYKPSKGRRWAARAPSTRITYGTITKERDYCAEDQTIESWREEGFPVGLKLAVLGIFIIVVFVYLTVENKSLFG
For B1, where the note is “BREAST”, the “TSA Expression Rate (ER)” value was 35%. The “Expression Rate (ER) %” value was 94% (TSA expression rate in CRC) and 23% (TSA expression rate in PROSTATE cancer).

B2: GAGE-7 (protein, UniProt O76087 1-117, looked up)
G antigen 7: MSWRGRSTYYWPRPRRYVQPPEMIGPMRPEQFSDEVEPATPEEGEPATQRQDPAAAQEGEDEGASAGQGPKPEAHSQEQGHPQTGCECEDGPDGQEMDPPNPEEVKTPEEGEKQSQC
Turning to B2, the “TSA Expression Rate (ER)” value (BREAST) was 31%. Moreover, the “Expression Rate (ER) %” value (TSA expression rate in HEAD and NECK) is 9%.

B3: PIWIL3 (protein, UniProt Q7Z3Z3 1-882, looked up)
Piwi-like protein 3: MPGRARTRARGRARRRESYQQEAPGGPRAPGSATTQEPPQLQSTPRPLQEEVPVVRPLQPRAARGGAGGGAQSQGVKEPGPEAGLHTAPLQERRIGGVFQDLVVNTRQDMKHVKDSKTGSEGTVVQLLANHFRVISRPQWVAYKYNVDYKPDIEDGNLRTILLDQHRRKFGERHIFDGNSLLLSRPLKERRVEWLSTTKDKNIVKITVEFSKELTPTSPDCLRYYNILFRRTFKLLDFEQVGRNYYTKKKAIQLYRHGTSLEIWLGYVTSVLQYENSITLCADVSHKLLRIETAYDFIKRTSAQAQTGNIREEVTNKLIGSIVLTKYNNKTYRVDDIDWKQNPEDTFNKSDGSKITYIDYYRQQHKEIVTVKKQPLLVSQGRWKKGLTGTQREPILLIPQLCHMTGLTDEICKDYSIVKELAKHTRLSPRRRHHTLKEFINTLQDNKKVRELLQLWDLKFDTNFLSVPGRVLKNANIVQGRRMVKANSQGDWSREIRELPLLNAMPLHSWLILYSRSSHREAMSLKGHLQSVTAPMGITMKPAEMIEVDGDANSYIDTLRKYTRPTLQMGMSCLLVFKVICILPNDDKRRYDSIKRYLCTKCPIPSQCVVKKTLEKVQARTIVTKIAQQMNCKMGGALWKVETDVQRTMFVGIDCFHDIVNRQKSIAGFVASTNAELTKWYSQCVIQKTGEELVKELEICLKAALDVWCKNESSMPHSVIVYRDGVGDGQLQALLDHEAKKMSTYLKTISPNNFTLAFIVVKKRINTRFFLKHGSNFQNPPPGTVIDVELTRNEWYDFFIVSQSVQDGTVTPTHYNVIYDTIGLSPDTVQRLTYCLCHMYYNLPGIIRVPAPCHYAHKLAYLVGQSIHQEPNRSLSTRLFYL
For B3, the “TSA Expression Rate (ER)” value (OVARIAN) was 88%. For the same molecule, the “Expression Rate (ER) %” value is, setting by setting: (TSA expression rate in CRC) 96%; under setting [1], 7%.

B4: SPAG8 (protein, UniProt Q99932 1-485, looked up)
Sperm-associated antigen 8: METNESTEGSRSRSRSLDIQPSSEGLGPTSEPFPSSDDSPRSALAAATAAAAAAASAAAATAAFTTAKAAALSTKTPAPCSEFMEPSSDPSLLGEPCAGPGFTHNIAHGSLGFEPVYVSCIAQDTCTTTDHSSNPGPVPGSSSGPVLGSSSGAGHGSGSGSGPGCGSVPGSGSGPGPGSGPGSGPGHGSGSHPGPASGPGPDTGPDSELSPCIPPGFRNLVADRVPNYTSWSQHCPWEPQKQPPWEFLQVLEPGARGLWKPPDIKGKLMVCYETLPRGQCLLYNWEEERATNHLDQVPSMQDGSESFFFRHGHRGLLTMQLKSPMPSSTTQKDSYQPPGNVYWPLRGKREAMLEMLLQHQICKEVQAEQEPTRKLFEVESVTHHDYRMELAQAGTPAPTKPHDYRQEQPETFWIQRAPQLPGVSNIRTLDTPFRKNCSFSTPVPLSLGKLLPYEPENYPYQLGEISSLPCPGGRLGGGGGRMTPF
Turning to B4, the “TSA Expression Rate (ER)” value reads like this: (BREAST) 29%; (LUNG) 43%.

B5: HSPB9 (protein, UniProt Q9BQS6 1-159, looked up)
Heat shock protein beta-9: MQRVGNTFSNESRVASRCPSVGLAERNRVATMPVRLLRDSPAAQEDNDHARDGFQMKLDAHGFAPEELVVQVDGQWLMVTGQQQLDVRDPERVSYRMSQKVHRKMLPSNLSPTAMTCCLTPSGQLWVRGQCVALALPEAQTGPSPRLGSLGSKASNLTR
Take B5: the “TSA Expression Rate (ER)” value (LUNG) is given as 40%. Moreover, the “Expression Rate (ER) %” value is, setting by setting: (TSA expression rate in CRC) 40%; under setting [2], 20%.

B6: THEG (protein, UniProt Q9P2T0 1-379, looked up)
Sperm microtubule associated …: MGDSRRRSLGNQPSSEAAGRSEREQDGDPRGLQSSVYESRRVTDPERQDLDNAELGPEDPEEELPPEEVAGEEFPETLDPKEALSELERVLDKDLEEDIPEISRLSISQKLPSTTMTKARKRRRRRRLMELAEPKINWQVLKDRKGRCGKGYAWISPCKMSLHFCLCWPSVYWTERFLEDTTLTITVPAVSRRVEELSRPKRFYLEYYNNNRTTPVWPIPRSSLEYRASSRLKELAAPKIRDNFWSMPMSEVSQVSRAAQMAVPSSRILQLSKPKAPATLLEEWDPVPKPKPHVSDHNRLLHLARPKAQSDKCVPDRDPRWEVLDVTKKVVASPRIISLAKPKVRKGLNEGYDRRPLASMSLPPPKASPEKCDQPRPGL
In the case of B6, for the setting “LUNG”, the “TSA Expression Rate (ER)” value is recorded as 31%.

B7: CALR3 (protein, UniProt Q96L12 20-384, looked up)
Calreticulin-3: TVYFQEEFLDGEHWRNRWLQSTNDSRFGHFRLSSGKFYGHKEKDKGLQTTQNGRFYAISARFKPFSNKGKTLVIQYTVKHEQKMDCGGGYIKVFPADIDQKNLNGKSQYYIMFGPDICGFDIKKVHVILHFKNKYHENKKLIRCKVDGFTHLYTLILRPDLSYDVKIDGQSIESGSIEYDWNLTSLKKETSPAESKDWEQTKDNKAQDWEKHFLDASTSKQSDWNGDLDGDWPAPMLQKPPYQDGLKPEGIHKDVWLHRKMKNTDYLTQYDLSEFENIGAIGLELWQVRSGTIFDNFLITDDEEYADNFGKATWGETKGPEREMDAIQAKEEMKKAREEEEEELLSGKINRHEHYFNQFHRRNEL
With B7, for the setting “BREAST”, the “TSA Expression Rate (ER)” value is given as 0%. Also, the “Expression Rate (ER) %” value was 16% (TSA expression rate in CRC); 40% (TSA expression rate in GASTRIC cancer); 80% (TSA expression rate in Kidney); 9% under setting [1]; 44% (TSA expression rate in MELANOMA).

B8: SPAG6 (protein, UniProt O75602 1-509, looked up)
Sperm-associated antigen 6: MSQRQVLQVFEQYQKARTQFVQMVAELATRPQNIETLQNAGVMSLLRTLLLDVVPTIQQTAALALGRLANYNDDLAEAVVKCDILPQLVYSLAEQNRFYKKAAAFVLRAVGKHSPQLAQAIVDCGALDTLVICLEDFDPGVKEAAAWALRYIARHNAELSQAVVDAGAVPLLVLCIQEPEIALKRIAASALSDIAKHSPELAQTVVDAGAVAHLAQMILNPDAKLKHQILSALSQVSKHSVDLAEMVVEAEIFPVVLTCLKDKDEYVKKNASTLIREIAKHTPELSQLVVNAGGVAAVIDCIGSCKGNTRLPGIMMLGYVAAHSENLAMAVIISKGVPQLSVCLSEEPEDHIKAAAAWALGQIGRHTPEHARAVAVTNTLPVLLSLYMSTESSEDLQVKSKKAIKNILQKCTYLPALEPFLYDAPPNILKHVVGQFSKVLPHDSKARRLFVTSGGLKKVQEIKAEPGSLLQEYINSINSCYPEEIVRYYSPGYSDTLLQRVDSYQPLNN
In the case of B8, the “TSA Expression Rate (ER)” value is reported as 21% (BREAST) and 29% (LUNG).

B9: COX6B2 (protein, UniProt Q6YFQ2 1-88, looked up)
Cytochrome c oxidase subunit …: MLDVEAQEPPKGKWSTPPFDPRFPSQNQIRNCYQNFLDYHRCLKTRTRRGKSTQPCEYYFRVYHSLCPISWVESWNEQIKNGIFAGKI
As for B9, the “TSA Expression Rate (ER)” value (LUNG) is 24%.

B10: NLRP4 (protein, UniProt Q96MN2 1-994, looked up)
NACHT, LRR and PYD …: MAASFFSDFGLMWYLEELKKEEFRKFKEHLKQMTLQLELKQIPWTEVKKASREELANLLIKHYEEQQAWNITLRIFQKMDRKDLCMKVMRERTGYTKTYQAHAKQKFSRLWSSKSVTEIHLYFEEEVKQEECDHLDRLFAPKEAGKQPRTVIIQGPQGIGKTTLLMKLMMAWSDNKIFRDRFLYTFYFCCRELRELPPTSLADLISREWPDPAAPITEIVSQPERLLFVIDSFEELQGGLNEPDSDLCGDLMEKRPVQVLLSSLLRKKMLPEASLLIAIKPVCPKELRDQVTISEIYQPRGFNESDRLVYFCCFFKDPKRAMEAFNLVRESEQLFSICQIPLLCWILCTSLKQEMQKGKDLALTCQSTTSVYSSFVFNLFTPEGAEGPTPQTQHQLKALCSLAAEGMWTDTFEFCEDDLRRNGVVDADIPALLGTKILLKYGERESSYVFLHVCIQEFCAALFYLLKSHLDHPHPAVRCVQELLVANFEKARRAHWIFLGCFLTGLLNKKEQEKLDAFFGFQLSQEIKQQIHQCLKSLGERGNPQGQVDSLAIFYCLFEMQDPAFVKQAVNLLQEANFHIIDNVDLVVSAYCLKYCSSLRKLCFSVQNVFKKEDEHSSTSDYSLICWHHICSVLTTSGHLRELQVQDSTLSESTFVTWCNQLRHPSCRLQKLGINNVSFSGQSVLLFEVLFYQPDLKYLSFTLTKLSRDDIRSLCDALNYPAGNVKELALVNCHLSPIDCEVLAGLLTNNKKLTYLNVSCNQLDTGVPLLCEALCSPDTVLVYLMLAFCHLSEQCCEYISEMLLRNKSVRYLDLSANVLKDEGLKTLCEALKHPDCCLDSLCLVKCFITAAGCEDLASALISNQNLKILQIGCNEIGDVGVQLLCRALTHTDCRLEILGLEECGLTSTCCKDLASVLTCSKTLQQLNLTLNTLDHTGVVVLCEALRHPECALQVLGLRKTDFDEETQALLTAEEERNPNLTITDDCDTITRVEI
For the molecule B10, the “TSA Expression Rate (ER)” value (LUNG) was 38%.

B11: CABYR (protein, UniProt O75952 1-493, looked up)
Calcium-binding tyrosine …: MISSKPRLVVPYGLKTLLEGISRAVLKTNPSNINQFAAAYFQELTMYRGNTTMDIKDLVKQFHQIKVEKWSEGTTPQKKLECLKEPGKTSVESKVPTQMEKSTDTDEDNVTRTEYSDKTTQFPSVYAVPGTEQTEAVGGLSSKPATPKTTTPPSSPPPTAVSPEFAYVPADPAQLAAQMLGKVSSIHSDQSDVLMVDVATSMPVVIKEVPSSEAAEDVMVAAPLVCSGKVLEVQVVNQTSVHVDLGSQPKENEAEPSTASSVPLQDEQEPPAYDQAPEVTLQADIEVMSTVHISSVYNDVPVTEGVVYIEQLPEQIVIPFTDQVACLKENEQSKENEQSPRVSPKSVVEKTTSGMSKKSVESVKLAQLEENAKYSSVYMEAEATALLSDTSLKGQPEVPAQLLDAEGAIKIGSEKSLHLEVEITSIVSDNTGQEESGENSVPQEMEGKPVLSGEAAEAVHSGTSVKSSSGPFPPAPEGLTAPEIEPEGESTAE
Take B11: the “Expression Rate (ER) %” value under setting [2] is listed as 17% and the “Expression Rate (ER) %” value under setting [1] is on record as 16%.

B12: PTTG-1 (protein, UniProt O95997 2-202, looked up)
Securin: ATLIYVDKENGEPGTRVVAKDGLKLGSGPSIKALDGRSQVSTPRFGKTFDAPPALPKATRKALGTVNRATEKSVKTKGPLKQKQPSFSAKKMTEKTVKAKSSVPASDDAYPEIEKFFPFNPLDFESFDLPEEHQIAHLPLSGVPLMILDEERELEKLFQLGPPSPVKMPSPPWESNLLQSPSSILSTLDVELPPVCCDIDI
Consider B12, for which the “TSA Expression Rate (ER)” value (LUNG) was 20%.
